The values below come from PMC6033896 (Scientific Reports, 2018).

For this test, the target named is T1, fluorescent labelled Bid BH3 peptide (fluorescent label (Flu- or FAM-), position not stated).
T1 construct: BH3 peptide derived from the pro-apoptotic protein Bid; The methods name two probes (Flu-Bid with Mcl-1); the two probes may differ in label and limits; also called Flu-Bid; FAM-Bid
Nature of the test: fluorescence polarisation; direct binding of the fluorescent Bid probe to recombinant protein; Ex 485 nm, Em 530 nm, room temperature; buffer of the Kd determination not told apart from the two competitive assay buffers. The note with it: both partners purified. On the technique in general: In fluorescence polarisation assays a small probe gives low polarisation when free and higher when bound to something large.

B1: recombinant Bcl-xL protein (natural protein)
chain: MSQSNRELVVDFLSYKLSQKGYSWSQFSDVEENRTEAPEGTESEVKQALREAGDEFELRYRRAFSDLTSQLHITPGTAYQSFEQVVNELFRDGVNWGRIVAFFSFGGALCVESVDKEMQVLVSRIAAWMATYLNDHLEPWIQENGGWDTFVELYGNNAAAESRKGQERFN
With B1, the Kd – broadly, the free concentration of one partner at which half of the binding sites on the other are occupied at equilibrium, for simple one-to-one binding – came out at 20 ± 2.3 nM.

B2: recombinant Mcl-1 protein (wild type) (natural protein)
chain: EDELYRQSLEIISRYLREQATGAKDTKPMGRSGATSRKALETLRRVGDGVQRNHETAFQGMLRKLDIKNEDDVKSLSRVMIHVFSDGVTNWGRIVTLISFGAFVAKHLKTINQESCIEPLAESITDVLVRTKRDWLVKQRGWDGFVEFFHVEDLEGG
Regarding B2, the Kd was found to be 3 ± 0.1 nM.
